Data reported in PMC4227749.

Test system: AgrA L171A (Staphylococcus aureus SH1000)
Test: EMSA
Details: EMSA: 10 mM HEPES pH 7.6, 50 mM KCl, 1 mM EDTA, 2 mM DTT, 0.5% Triton X-100, 5% glycerol, 37 C; 1 uM AgrA (pre-incubated at 3 uM with 50 mM acetyl phosphate …)

## agr operon intergenic region P2-P3 probe
  binding signal (% of wild-type binding): 50
